According to the nanobody polyreactivity screen of Harvey et al. (2022):

Experiment: yeast display, Sf9 membrane polyspecificity reagent, FACS + sequencing; frameworks hold sequencing errors
Procedure, shortened: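 Synthetic nanobody libraries on Saccharomyces cerevisiae BJ5465 were galactose-induced for 36–48 hours, stained 1 hour at 4 °C with 10% biotinylated, detergent-solubilized Sf9 membrane reagent and enriched on streptavidin microbeads. FACS then separated cells into low and high (top ~1%) gates by anti-HA (expression) and streptavidin (reagent binding) fluorescence. Genes were colony-PCR amplified, MiSeq 2 × 250 sequenced and CDR-length filtered. A clone's polyreactivity label is that of its gate of origin.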

Sequence | polyreactivity (PSR sort gate)
QVQLVESGGGLVQAGGSLRLSCAASGIIFKLYAMGWYRQAPGKEREFVATITKTGGRTYYEDSVKGRFTISRDNAKNTVYLQMNSLKPEDTAVYYCAARRVNGKMYYWGQGTQVTVSS | high polyreactivity
QVQLVESGGGLVQAGGSLRLSCAASGRIFLGNAMGWYRQAPGKERELVAAIDASGGSTYYADSVKGRFTISRDNAKNTVYLQMNSLKPEDTAVYYCNAEPRYYSGGHGYDYWGQGTQVTVSS | low polyreactivity
QVQLVESGGGLVQAGGSLRLSCAASGIIFFRNAMGWYRQAPGKERELVAAIRWSGGSSYYADSVKGRYTISRDNAKNTVYLQINSLKPEDTAVYYCNAVTVYKHGSWGQGTQVTVSS | high polyreactivity
QVHLQESGGGLVQAGGSLRLSCAASGTISQEDWMGWYRQAPGKEREFVAAIGLGSNTNYADSLKGRFTISRDNAKNSVYLQKNSLKPEDTAVYYFAVSVWQYSDHVYRGQGTQVTVSS | low polyreactivity
QVQLVESGGGLVQAGGSLRLSCAASGSIFRGNAMGWYRQAPGKERELVASISYSGGSTYYADSVKGRFTISRDTAKNTVYLQMNSLKPEDTAVYYCAADESVAYPYSGYQYYRHIYDYWGQGTQVTVSS | low polyreactivity
QVQLVDSGGGLVQAGGSLRITCAASGFTFTRYALGGYRQAPGKERELVAVITSTAGSTYYADSVKGRFTISRDNAKNSVYLQMNSLKAEVTAVYFCAAESLVHGDVTLEEVVAQSYDYWGQGSQVTVSS | low polyreactivity
QVQIVESGGGLVQAGGSLRLSCAASGRTLYQYSMGWYRQAPGKERELVAAITTSTGNTYYADSVKARFTISRDNAKYTVYSQMNSLKPEDTAVYYCAADTVWRLDYWGQGTQVTVSS | low polyreactivity
QVQLVESGGGLVQAGGSLRLSCAASGFTFKFYAMGWYRQAPGKERELVAAISARGGITYYADSVKGRFTISRDNAKNTVYLQMNSLKPEDTAVYYCAAGVFGHYAFVEFDYWGQGTQVTVSS | high polyreactivity
QVQLVESGGGLVQAGGSLRLSCAASGSTSQYYAMGWYRQAPGKERELVAVISWSGGSTYYADSVKARFTISRDNAKNTVYLEMNSLKPEDTAVYYCAARYRRRVIATRDYWGQGTQVTVSS | high polyreactivity
QVQLVESGGGLVQAGGSLRLSCAASGSIFFRYAMGWYRQAPGKERELVAAISSSGGSTYYADSVKGRFTISRDNAKNTVYLQMNSLKPEDTAVYYCAARYYRKYYYSPFDYWGQGTQVTVSS | high polyreactivity
QVQLVESGGGLVQAGGSLRLSCAASGSTFNPYAMGWYRQAPGKERELVAAITWSSDDTYYADSVKGRFTISRDNAKNTVYLQMNSLKPEDTAVYYCAATTVTQWYTITVAYGYWGQGTQVTVSS | low polyreactivity
QVQLEESGGGLVQAGGSLRLSCAASGITIYYYAMGWYRQAPGKERELVAAISRSAGSTSYADSVKGRFTISRDNAKNTVYLQMNSLKTEDNAVYYCAAQGWHLDSQWQLYNYYYWGQGTQVTVSS | high polyreactivity
QVQLVESGGGLVQAGGSLRISCAASGITFSENDMGWYRQAPGKERELDAAISSGDGTNYADSVKGRFTISRDNEKNTVYLQMNSLKPEDTAVYYCNADGFVDWAWSEQYIPNIHLDYWGQGTQVTVSS | low polyreactivity
QVHLVESGGGLVQAGGSLRLSCAASGSNFKGNAMGWYRQAPGKERELVAAINRSGTSTYYADSVKGRFTISRDNAKKTVYLQMNSLKPEDTAVYYCAKKYFGHRFDYWGQGTQVTVSS | high polyreactivity
QVQLVESGGGLVQAGGSLRLSCAASGRIFALYAMGWYRQAPGKERELVASINGSSGSTYYADSVKGRFTISRDTAKNTVYLQMNSLKPEDTAVYYCAKKYYGVKFYWGQGTQVTVSS | low polyreactivity
QVQLVESGGGLVQAGGSLRLSCAASGGTFRRNAMGWYRQAPGKERELVAAISFNGDRTYYADSVKGRFTISRDNAKNTVYLQMNSLKPEDTAVYYCNKASWWWGGYTYPHEYWGQGTQVTVSS | low polyreactivity
QVQLVESGGGLVQAGGSLRLSCAASGLTFIYYAMGWYRQAPGKEREMVAAISTSGASTYYADSVKGRFTISRDNAKNTVYLQMNSLKPEVSAVYYCNGEYFGEYRDYGYWGQGTLVTVSS | low polyreactivity
